B1: NETO1 (parent)
chain: GFSPIIGRFCGQQNPPVIKSSGRF

Results on 94 variants are retold here after the supplement of paper PMC10567573.
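Also: lentivirally expressed fusions sorted by FACS into six bins by GFP to DsRed ratio, PSI derived from sequencing read proportions per bin multiplied by bin number.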

The variants in this data set derive from B1. Put plainly: protein stability index of a GFP-peptide fusion (GPS, HEK-293T) (PSI 1-6); higher = more stable. The note with it: c terminus: a fixed tail appended.
With GFSPIIGRFCGQQNPPVFKSSGRF [I18F], the protein stability index worked out at 1.95.

For GFSPIIGRFCGQQNPPVEKSSGRF [I18E], the protein stability index turned out to be 2.61.

As to GFSPIIGRFCGQQNPPVKKSSGRF [I18K], the protein stability index was 2.72.

Turning to GFSPIIGRFCGQQNPPVAKSSGRF [I18A], the protein stability index is 2.7.

As to GFWPIIGRFCGQQNPPVIKSSGRF [S3W], the protein stability index was 1.75.

As to GFCPIIGRFCGQQNPPVIKSSGRF [S3C], the protein stability index worked out at 1.22.

For the variant GFKPIIGRFCGQQNPPVIKSSGRF [S3K], the protein stability index amounted to 2.47.

Regarding GFEPIIGRFCGQQNPPVIKSSGRF [S3E], the protein stability index was 2.78.

As for GFNPIIGRFCGQQNPPVIKSSGRF [S3N], the protein stability index stood at 2.08.

With GFDPIIGRFCGQQNPPVIKSSGRF [S3D], the protein stability index came to 2.41.

On to GFYPIIGRFCGQQNPPVIKSSGRF [S3Y], for which the protein stability index worked out at 1.53.

Take GFPPIIGRFCGQQNPPVIKSSGRF [S3P]: the protein stability index was found to be 1.75.

Regarding GFVPIIGRFCGQQNPPVIKSSGRF [S3V], the protein stability index turned out to be 2.03.

Consider GFSPIIGRFCKQQNPPVIKSSGRF [G11K], for which the protein stability index came out at 1.91.

With GFSPIIGRFCEQQNPPVIKSSGRF [G11E], the protein stability index was determined as 2.54.

For the variant GFSPIIGRFCTQQNPPVIKSSGRF [G11T], the protein stability index came out at 2.58.

For the variant GFSPIIGRFCHQQNPPVIKSSGRF [G11H], the protein stability index was found to be 1.91.

With GFSPIIGRFGGQQNPPVIKSSGRF [C10G], the protein stability index was found to be 3.05.

In the case of GFSPIIGRFSGQQNPPVIKSSGRF [C10S], the protein stability index was determined as 2.9.

In the case of GFSPIIGRFVGQQNPPVIKSSGRF [C10V], the protein stability index was determined as 2.46.

As to GFSPIIGRFTGQQNPPVIKSSGRF [C10T], the protein stability index was determined as 3.29.

On to GFSPIIGRFMGQQNPPVIKSSGRF [C10M], for which the protein stability index is 2.27.

Regarding GFSPIIGRFEGQQNPPVIKSSGRF [C10E], the protein stability index worked out at 3.76.

GFSPIIGRFFGQQNPPVIKSSGRF [C10F]: the protein stability index turned out to be 2.51.

With GFSPIIGRFRGQQNPPVIKSSGRF [C10R], the protein stability index came out at 2.63.

As for GFSPIIGRFNGQQNPPVIKSSGRF [C10N], the protein stability index was 3.13.

On to GFSPIILRFCGQQNPPVIKSSGRF [G7L], for which the protein stability index turned out to be 1.85.

In the case of GFSPIIHRFCGQQNPPVIKSSGRF [G7H], the protein stability index turned out to be 1.74.

Turning to GFSPIIPRFCGQQNPPVIKSSGRF [G7P], the protein stability index is 1.65.

On to GFSPIIYRFCGQQNPPVIKSSGRF [G7Y], for which the protein stability index came out at 1.64.

Consider GFSPIIFRFCGQQNPPVIKSSGRF [G7F], for which the protein stability index was 2.03.

As to GFSPIIVRFCGQQNPPVIKSSGRF [G7V], the protein stability index turned out to be 1.83.

For GWSPIIGRFCGQQNPPVIKSSGRF [F2W], the protein stability index is 1.52.

Regarding GRSPIIGRFCGQQNPPVIKSSGRF [F2R], the protein stability index came out at 2.16.

As for GVSPIIGRFCGQQNPPVIKSSGRF [F2V], the protein stability index is 2.13.

Regarding GSSPIIGRFCGQQNPPVIKSSGRF [F2S], the protein stability index was found to be 2.75.

For the variant GGSPIIGRFCGQQNPPVIKSSGRF [F2G], the protein stability index was 2.54.

Take GESPIIGRFCGQQNPPVIKSSGRF [F2E]: the protein stability index came to 3.09.

For GHSPIIGRFCGQQNPPVIKSSGRF [F2H], the protein stability index stood at 2.15.

GFSPIIGRFCGQQNPPVIDSSGRF [K19D]: the protein stability index came to 2.26.

Consider GFSPIIGRFCGQQNPPVITSSGRF [K19T], for which the protein stability index is 1.94.

With GFSPIIGRFCGQQNPPVIFSSGRF [K19F], the protein stability index is 1.69.

In the case of GFSPIIGRFCGQQNPPVIWSSGRF [K19W], the protein stability index amounted to 1.78.

With GFSPIIGRFCGQQNPPVICSSGRF [K19C], the protein stability index is 1.93.

Turning to GFSPIIGRFCGQQNPPVIRSSGRF [K19R], the protein stability index is 1.85.

Regarding GFSPIIGRFCGQQNPPVIESSGRF [K19E], the protein stability index worked out at 2.27.

Turning to GFSPIIGRFCGQQNPPVISSSGRF [K19S], the protein stability index is 2.48.

Take GFSPIIGRFCGQQNPPVIVSSGRF [K19V]: the protein stability index was found to be 1.48.

GFSPIIGRFCGQQNPPVIMSSGRF [K19M]: the protein stability index turned out to be 2.58.

On to GFSPIIGRFCGQQNPPVIASSGRF [K19A], for which the protein stability index turned out to be 2.27.

Turning to GFSPIIGRFCGQQNPPVIPSSGRF [K19P], the protein stability index amounted to 2.37.

GFSPIIGRFCGQQNPPVIISSGRF [K19I]: the protein stability index stood at 2.07.

As to GFSPIIGRFCGHQNPPVIKSSGRF [Q12H], the protein stability index is 2.3.

On to GFSPIIGRFCGTQNPPVIKSSGRF [Q12T], for which the protein stability index amounted to 2.26.

With GFSPIIGRFCGLQNPPVIKSSGRF [Q12L], the protein stability index stood at 1.75.

As for GFSPIIGRFCGYQNPPVIKSSGRF [Q12Y], the protein stability index came out at 2.01.

Regarding GFSPIIGRFCGVQNPPVIKSSGRF [Q12V], the protein stability index worked out at 2.15.

Consider GFSPIIGRFCGIQNPPVIKSSGRF [Q12I], for which the protein stability index was determined as 2.16.

Regarding GFSKIIGRFCGQQNPPVIKSSGRF [P4K], the protein stability index is 2.59.

As for GFSEIIGRFCGQQNPPVIKSSGRF [P4E], the protein stability index stood at 2.33.

With GFSHIIGRFCGQQNPPVIKSSGRF [P4H], the protein stability index turned out to be 2.05.

Take GFSPIIGRFCGQQNPKVIKSSGRF [P16K]: the protein stability index was found to be 2.03.

As for GFSPIIGRFCGQQNPVVIKSSGRF [P16V], the protein stability index worked out at 2.26.

Consider GFSPIIGRFCGQQNPRVIKSSGRF [P16R], for which the protein stability index worked out at 2.32.

For the variant GFSPIIGRFCGQQNPLVIKSSGRF [P16L], the protein stability index was found to be 1.59.

As for GFSPIIGRFCGQQNPEVIKSSGRF [P16E], the protein stability index was determined as 2.58.

GFSPIIGRFCGQQNPIVIKSSGRF [P16I]: the protein stability index turned out to be 1.86.

As for GFSPIIGRFCGQQNPGVIKSSGRF [P16G], the protein stability index is 1.85.

For PFSPIIGRFCGQQNPPVIKSSGRF [G1P], the protein stability index is 2.25.

Turning to HFSPIIGRFCGQQNPPVIKSSGRF [G1H], the protein stability index was determined as 1.66.

Regarding LFSPIIGRFCGQQNPPVIKSSGRF [G1L], the protein stability index is 2.27.

Regarding NFSPIIGRFCGQQNPPVIKSSGRF [G1N], the protein stability index worked out at 1.85.

In the case of RFSPIIGRFCGQQNPPVIKSSGRF [G1R], the protein stability index stood at 1.98.

Turning to EFSPIIGRFCGQQNPPVIKSSGRF [G1E], the protein stability index amounted to 1.7.

With IFSPIIGRFCGQQNPPVIKSSGRF [G1I], the protein stability index was 2.

As for TFSPIIGRFCGQQNPPVIKSSGRF [G1T], the protein stability index is 1.8.

GFSPIIGRFCGQKNPPVIKSSGRF [Q13K]: the protein stability index worked out at 1.88.

As to GFSPIIGRFCGQHNPPVIKSSGRF [Q13H], the protein stability index stood at 1.88.

For GFSPIIGRFCGQMNPPVIKSSGRF [Q13M], the protein stability index was 2.3.

Turning to GFSPIIGRFCGQANPPVIKSSGRF [Q13A], the protein stability index turned out to be 1.83.

Turning to GFSPIIGRFCGQRNPPVIKSSGRF [Q13R], the protein stability index is 2.64.

Regarding GFSPIIGRFCGQLNPPVIKSSGRF [Q13L], the protein stability index was found to be 2.3.

Turning to GFSPIIGRFCGQSNPPVIKSSGRF [Q13S], the protein stability index is 1.63.

For GFSPIIGRFCGQENPPVIKSSGRF [Q13E], the protein stability index is 2.22.

Regarding GFSPIIGRFCGQNNPPVIKSSGRF [Q13N], the protein stability index was 2.31.

In the case of GFSPIIGRFCGQQNPPVIKSSGRD [F24D], the protein stability index amounted to 2.98.

As to GFSPIIGRFCGQQNPPVIKSSGRR [F24R], the protein stability index is 2.66.

On to GFSPIIGRFCGQQNPPVIKSSGRC [F24C], for which the protein stability index came to 2.48.

With GFSPIIGRFCGQQNPPVIKSSGRI [F24I], the protein stability index was 2.23.

As for GFSPIIGRFCGQQNPPVIKSSGRQ [F24Q], the protein stability index worked out at 3.

Turning to GFSPIIGRFCGQQNPPVIKSSGRA [F24A], the protein stability index amounted to 2.42.

On to GFSPIIGRFCGQQNPPVIKSSGRN [F24N], for which the protein stability index stood at 2.64.

For GFSPIIGRFCGQQNPPVIKSSGRK [F24K], the protein stability index amounted to 3.64.

Turning to GFSPIIGRFCGQQNPPVIKSSGRH [F24H], the protein stability index is 2.26.
